Results from publication PMC5433836 (Biochemistry, 2016).
“Also recorded” adds a separate entry of the source. Read-outs that look alike come from different tables or passages of the source. Where no end group is shown, it is not given here. The star is where a group is joined. RhodamineB = CCN(CC)c1ccc2c(-c3ccccc3C(=O)*)c3ccc(=[N+](CC)CC)cc-3oc2c1

Tests used:
Crumbs CTD = Crumbs CTD (UniProt P10040); details: cited from earlier work
[1] = target: disulfide-stabilized Par-6 CRIB-PDZ (CRIB-PDZ^Q144C/L164C) (D. melanogaster); assay: ITC
Pals1 = Pals1 (UniProt Q8N3R9); details: cited from earlier work
Par-6 PDZ^156–255 = assay: 1H-15N HSQC NMR titration of PDZ^156–255 with peptide; format: binding, D. melanogaster; details: 25 °C, 0.1–0.25 mM 15N-labeled protein, 90% H2O/10% D2O, pH 5.5
Par-6 = details: Cdc42-GTP:Par-6; cited from earlier work
[2] = target: Par-6 CRIB-PDZ module (CRIB-PDZ^130–255) (D. melanogaster) (UniProt O97111); assay: fluorescence polarisation
[3] = target: Par-6 PDZ domain (residues 156–255) (D. melanogaster) (UniProt O97111); assay: fluorescence polarisation
[4] = target: Par-6 CRIB-PDZ module (CRIB-PDZ^130–255) (D. melanogaster) (UniProt O97111); assay: fluorescence polarisation; remark: listed apart in the source
[5] = target: disulfide-stabilized Par-6 CRIB-PDZ (CRIB-PDZ^Q144C/L164C) (D. melanogaster); assay: fluorescence polarisation
[6] = target: Cdc42:CRIB-PDZ^130–255 complex (Cdc42 loaded with GMPPNP) ( | D. melanogaster, UniProt P60953 1-191; O97111 130-255); assay: fluorescence polarisation

Chain of Pals1 (Q8N3R9 whole entry): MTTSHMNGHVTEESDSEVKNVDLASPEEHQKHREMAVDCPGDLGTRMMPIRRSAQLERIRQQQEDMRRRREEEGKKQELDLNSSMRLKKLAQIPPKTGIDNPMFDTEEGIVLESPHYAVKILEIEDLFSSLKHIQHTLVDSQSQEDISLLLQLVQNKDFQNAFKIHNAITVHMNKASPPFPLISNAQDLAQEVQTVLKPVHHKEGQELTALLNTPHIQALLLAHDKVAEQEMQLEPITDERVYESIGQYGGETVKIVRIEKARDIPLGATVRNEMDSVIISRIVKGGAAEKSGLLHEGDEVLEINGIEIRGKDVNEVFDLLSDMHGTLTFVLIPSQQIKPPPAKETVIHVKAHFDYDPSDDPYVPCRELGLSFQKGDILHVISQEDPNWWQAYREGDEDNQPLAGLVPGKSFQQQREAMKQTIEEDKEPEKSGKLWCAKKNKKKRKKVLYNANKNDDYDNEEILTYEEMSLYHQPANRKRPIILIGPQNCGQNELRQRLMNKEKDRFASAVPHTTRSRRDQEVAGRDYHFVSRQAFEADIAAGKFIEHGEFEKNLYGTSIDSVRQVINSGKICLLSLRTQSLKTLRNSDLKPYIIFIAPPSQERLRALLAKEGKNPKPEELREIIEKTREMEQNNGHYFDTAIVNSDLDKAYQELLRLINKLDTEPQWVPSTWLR
Chain of Crumbs CTD (P10040 2110-2146): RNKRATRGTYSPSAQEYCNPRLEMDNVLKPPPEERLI

Molecule: Pals1 PDZ-SH3-GK (from UniProt Q8N3R9)
- Kd (Crumbs CTD): 0.1 µM

Molecule: VKESLV peptide
- Kd [1]: 17 µM
- dH [1]: -3.4 kcal/mol
- stoichiometry N [1]: 1.09

Molecule: Par-6 CRIB-PDZ (from UniProt Q9NPB6)
- Kd (Pals1): 6 µM

Molecule: LPPEERLI [LPPEERLI]
- HSQC titration behaviour / binding mode (Par-6 PDZ^156–255): Significant shifts were observed for many amino acids in and near the PDZ ligand binding cleft; also recorded: consistent with binding at a second, low affinity site

Molecule: Cdc42-GTP: monomeric GTPase Cdc42 bound to GTP; binds the CRIB module of Par-6
- Kd (Par-6): ~0.05 µM
- binding energy (Par-6): ~ 10 kcal/mol

B1: N-terminally Rhodamine B-labeled GEERLI peptide (peptide)
peptide: RhodamineB-GEERLI
- Kd [2]: 7.2 µM
- Kd [3]: 12 µM
- Kd [4]: 7.3 µM
- Kd [5]: 2.5 µM
- Kd [6]: 1.2 µM

B2: N-terminally Rhodamine B-labeled VKESLV peptide (peptide)
peptide: RhodamineB-VKESLV
- Kd [3]: 72 µM
- Kd [4]: 54 µM
- Kd [5]: 13 µM
- Kd [6]: 6 µM

B3: modified Crumbs peptide lacking the proline residues (GEERLI) (peptide)
peptide: GEERLI
- Kd [1]: 1.9 µM
- dH [1]: -7.21 kcal/mol
- stoichiometry N [1]: 1.05
